The values below come from paper PMC7547722, “A versatile soluble siglec scaffold for sensitive and quantitative detection of glycan ligands” (Nature Communications, 2020).

Assay [1] has as its system peripheral blood immune cells. Briefly: Comparison of 2-step and pre-complexed Siglec-Fc binding, flow cytometry (Figure 3e-g). It is filed as cell-based, human. Particulars: Figure 3g.
Assay [2] relates to B-cells (CD19+), human splenocytes. Description: Siglec-Fc binding to splenocytes, flow cytometry. Type of assay: cell-based. Particulars: Suppl Fig 12; three replicate columns. Here is the method: (§1) For human splenocytes, the sample was homogenized in media through a 40 µm filter (Corning) under sterile conditions. Samples were centrifuged at 300 rcf for 5 min. The resulting pellet from the spleen sample and whole human blood were treated with RBC lysis buffer (7 min) and centrifuged at 300 rcf and the RBC lysis was repeated twice more until no RBC remained in the pellet. Samples were treated with human Fc-receptor blocking agent (TruStain FX, Biolegend) in flow buffer (HBSS, 0.1% BSA, 5 mM EDTA). For analysis, the following cocktail was used: hSig8 (PerCP/Cy5.5, clone 7C9, Biolegend cat. no. 347108, 1:200), hCD123 (PE/Cy7, clone 6H6, Biolegend cat. no. 306010, 1:200), hCD19 (PE, clone SJ25C1, Biolegend cat. no. 363004, 1:200), hCD3 (FITC, BD Pharmingen cat. no. 555332, 1:50), hCD14 (BV605, clone M5E2, BD Horizon cat. no. 564056, 1:200), hCD15 (BUV395, clone HI98, BD Horizon cat. no. 563872, 1:200), hCD56 (BV510, clone NCAM16.2, BD Horizon cat. no. 563041, 1:200). For human peripheral blood samples, we additionally used hHLA-DR (APC-Cy7, clone L243, Biolegend cat. no. 307618, 1:200). Pre-complexed Siglec-Fc/Strep-Tactin-AF647 (described above) was added to the antibody cocktail, added to cells, and allowed to stain at 4 °C for 45 min. The cells were then centrifuged at 300 rcf for 5 min and resuspended in flow buffer containing 1 µg/mL propidium iodide prior to analysis by flow cytometry.
(§2) Flow cytometry was performed on a BD LSRFortessa™ X-20 cell analyzer using BD FACSDiva Software Version 8.0.1 and data was processed using FlowJo LLC. Version 9.9.6 and Graphpad Prism 8. The live, single cell populations were gated out with two gates to obtain the median fluorescence intensity (MFI), which indicates binding of the Siglec-Fc-secondary complex to the cell surface. Control cells that were incubated with Strep-Tactin-AF647 (0.55 μg/mL, 0.57 pmol) was used to determine the baseline fluorescence. Number of cells (# cells) plotted indicates percentage of max (% max).

The subject of assay [3] is T-cells (CD3+), human splenocytes. Description: Siglec-Fc binding to splenocytes, flow cytometry. It is filed as cell-based. To be noted: Suppl Fig 12; three replicate columns. Here is the method:
as §1, §2
(Flow cytometry measures light scatter and fluorescence of single cells or particles in a stream.)

In assay [4] the test system is monocytes (CD14+), human splenocytes. Description: Siglec-Fc binding to splenocytes, flow cytometry. Particulars: Suppl Fig 12; three replicate columns. Type of assay: cell-based. The procedure: as §1, §2
For assay [5], the system named is NK cells (CD56+), human splenocytes. Description: Siglec-Fc binding to splenocytes, flow cytometry. Particulars: Suppl Fig 12; three replicate columns. Type of assay: cell-based. Here is the method: as §1, §2
The subject of assay [6] is BT549. Description: Flow cytometry, pre-complexed Siglec-Fc binding to breast cancer cell line. It is filed as cell-based. To be noted: Strep-Tactin-AF647, replicates. The procedure:
(§3) Strep-Tactin-AF647 (0.55 μg/mL, 0.57 pmol), streptavidin (Biolegend), or anti-human igG1 (Biolegend) was added to Siglec supernatant (50 μL) or purified Siglec and allowed to sit at 4 °C for 15 min. After, the pre-complexed solution was added to cells in a 96-well U-bottom plate for 30 min at 4 °C. After, 200 μL of flow buffer (HBSS, 0.1% BSA, 5 mM EDTA) was added and the plate was spun down at 300 rcf for 5 min. The cells were resuspended in 200 μL of flow buffer and processed through the flow cytometer.
as §2

Assay [7] has as its system ZR-75-1. The description is as above. It is filed as cell-based. Particulars: Strep-Tactin-AF647, replicates. Here is the method:
as §3, §2

Assay [8] deals with MCF7. The assay is described as above. Type of assay: cell-based. To be noted: Strep-Tactin-AF647, replicates. Here is the method: as §3, §2
For assay [9], the system named is T47D. Described as above. It is filed as cell-based. Particulars: Strep-Tactin-AF647, replicates. Here is the method:
as §3, §2

The test system of assay [10] is MDA-MB-468. The description is as above. Type of assay: cell-based. To be noted: Strep-Tactin-AF647, replicates. Here is the method: as §3, §2
Assay [11] concerns HS578T. The description is as above. Type of assay: cell-based. To be noted: Strep-Tactin-AF647, replicates. The procedure: as §3, §2
In assay [12] the test system is MDA-MB-231. The description is as above. Particulars: Strep-Tactin-AF647, replicates. Type of assay: cell-based. Here is the method: as §3, §2
The subject of assay [13] is U937 cells. Description: Flow cytometry, Siglec-Fc pre-complexed with Strep-Tactin, streptavidin or anti-human IgG1. It is filed as cell-based. To be noted: U937; Strep-Tactin-AF647; replicates, Fig. 2. The procedure: as §3, §2
Assay [14] has as its system B-cells (CD19+). Briefly: Siglec ligands on peripheral blood immune cells, flow cytometry. To be noted: replicate values. It is filed as cell-based, human. The procedure:
as §1, §2

For assay [15], the system named is T-cells (CD3+). The assay is described as above. Type of assay: cell-based, human. To be noted: replicate values. The procedure:
as §1, §2

Assay [16] relates to NK cells (CD56+). The description is as above. To be noted: replicate values. Type of assay: cell-based, human. The procedure:
as §1, §2

Assay [17] relates to neutrophils (CD15+). The assay is described as above. Type of assay: cell-based, human. Particulars: replicate values. The procedure:
as §1, §2

Assay [18] deals with cDCs (CD123dim/HLA-DR+). Described as above. Type of assay: cell-based, human. Particulars: cDC; replicate values. Here is the method: as §1, §2
Assay [19] deals with pDCs (CD123high/HLA-DR+). The assay is described as above. To be noted: pDC; replicate values. It is filed as cell-based, human. Here is the method:
as §1, §2

Assay [20] relates to neutrophils (CD15+), human splenocytes. Briefly: Siglec-Fc (CD22-Fc V1/V2, with or without Fc receptor block) binding to splenocytes, flow cytometry. Type of assay: cell-based. Particulars: Suppl Fig 12; three replicate columns. Here is the method: as §1, §2
Assay [21] concerns A549 cells. Briefly: Flow cytometry, pre-complexed Siglec-Fc binding. Type of assay: cell-based. Particulars: Strep-Tactin-AF647, replicates. Here is the method:
as §3, §2

Assay [22] has as its system Jurkat cells. Briefly: Flow cytometry, pre-complexed Siglec-Fc binding. It is filed as cell-based. To be noted: Strep-Tactin-AF647, replicates. Here is the method: as §3, §2
Assay [23] relates to K562 cells. Description: Flow cytometry, pre-complexed Siglec-Fc binding. Type of assay: cell-based. To be noted: Strep-Tactin-AF647, replicates. The procedure: as §3, §2
Assay [24] deals with HEK293T cells. Description: Flow cytometry, pre-complexed Siglec-Fc binding. It is filed as cell-based. Particulars: HEK; Strep-Tactin-AF647; replicates. The procedure: as §3, §2
Assay [25] concerns HuH7 cells. Description: Flow cytometry, pre-complexed Siglec-Fc binding. Type of assay: cell-based. To be noted: Strep-Tactin-AF647, replicates. The procedure:
as §3, §2

Assay [26] has as its system basophils (CCR3+). Briefly: Siglec ligands on peripheral blood immune cells, flow cytometry. It is filed as cell-based, human. To be noted: replicate values. Here is the method: (§4) Siglec supernatant (50 μL) or purified Siglec was incubated with cells in a 96-well U-bottom plate for 30 min at 4 °C. Following the incubation, 200 μL of flow buffer (HBSS, 0.1% BSA, 5 mM EDTA) was added and the plate was spun down at 300 rcf for 5 min. Strep-Tactin-AF647 (0.55 μg/mL, 50 μL, 0.57 pmol), streptavidin (Biolegend), or anti-human IgG1 (Biolegend) was added to the cells and incubated for 30 min at 4 °C. After, 200 μL of flow buffer (HBSS, 0.1% BSA, 5 mM EDTA) was added and the plate was spun down at 300 rcf for 5 min. The cells were resuspended in 200 μL of flow buffer and processed through the flow cytometer.
as §3, §1, §2

In assay [27] the test system is monocytes (CD14+). Described as above. Type of assay: cell-based, human. Particulars: replicate values. Here is the method: as §4, §3, §1, §2
Assay [28] has as its system eosinophils (Siglec-8+). Described as above. Type of assay: cell-based, human. Particulars: replicate values. The procedure: as §4, §3, §1, §2

Several values for one entry are separate records, joined by “and”; a condition that tells them apart may be missing. Identical values can stand only once.

B1: Siglec-9-Fc R120A (protein, UniProt Q9Y336 18-348, looked up, variant R120A)
extracellular domain: QTSKLLTMQSSVTVQEGLCVHVPCSFSYPSHGWIYPGPVVHGYWFREGANTDQDAPVATNNPARAVWEETRDRFHLLGDPHTKNCTLSIRDARRSDAGRYFFAMEKGSIKWNYKHHRLSVNVTALTHRPNILIPGTLESGCPQNLTCSVPWACEQGTPPMISWIGTSVSPLDPSTTRSSVLTLIPQPQDHGTSLTCQVTFPGASVTTNKTVHLNVSYPPQNLTMTVFQGDGTVSTVLGNGSSLSLPEGQSLRLVCAVDAVDSNPPARLSLSWRGLTLCPSQPSNPGVLELPWVHLRDAAEFTCRAQNPLGSQQVYLNVSLQSKATSGVTQG
modifications: extracellular domain fused to human IgG1 Fc
For B1, the “Siglec-9-Fc Binding” value is 43.3 and 45.1 and 40.9 in [1] (2-Step); 42 and 53.2 and 47.5 in assay [1] (Precomplex).

B2: Sig-3 R119A: CD33-Fc essential arginine mutant (protein, UniProt P20138 18-259, looked up, variant R119A)
extracellular domain: DPNFWLQVQESVTVQEGLCVLVPCTFFHPIPYYDKNSPVHGYWFREGAIISRDSPVATNKLDQEVQEETQGRFRLLGDPSRNNCSLSIVDARRRDNGSYFFAMERGSTKYSYKSPQLSVHVTDLTHRPKILIPGTLEPGHSKNLTCSVSWACEQGTPPIFSWLSAAPTSLGPRTTHSSVLIITPRPQDHGTNLTCQVKFAGAGVTTERTIQLNVTYVPQNPTTGIFPGDGSGKQETRAGVVH
modifications: extracellular domain fused to human IgG1 Fc
notes: CD33-Fc essential arginine mutant
Turning to B2, the “Binding, B-cells” value in assay [2] was 24.9 and 27 and 31.3. Besides, the “Binding, T-cells” value in [3] was 9.87 and 7.5 and 8.87. The “Binding, Monocytes” value in [4] was 22.5 and 51.6 and 43.8. Besides, the “Binding, NK” value in assay [5] was 16.9 and 14.2 and 13.6. Further, the “binding of pre-complexed Siglec-Fc (MFI)” value was 140 and 148 and 151 in assay [6]; 212 and 223 and 240 in [7]; 107 and 105 and 113 in assay [8]; 88.8 and 95.2 (2×) in assay [9]; 85.3 and 88 and 88.8 in assay [10]; 127 (2×) and 130 in assay [11]. In addition, the “binding of pre-complexed Siglec-Fc (MFI)” value in [12] is 133 (2×) and 138; in [13] it was 103 and 139 and 125; in [21], 196 and 195 and 188; in assay [22], 101 and 105 and 109; in assay [23], 73.5 and 79.6 and 81.1; in [24], 86.5 and 94.1 and 92.2. For the same molecule, the “binding of pre-complexed Siglec-Fc (MFI)” value in [25] is 85.3 and 88.8 and 87.9. Besides, the “Siglec-Fc binding (Figure 3d)” value in assay [14] is 147 and 5.13 and 27; in assay [15], 11.6 and -14.1 and 8.98; in assay [16] it was 3.81 and -14.1 and 12.8; in assay [17], 27 and -33.4 and 14.1; in [18] it was 28.2 and -2.85 and 34.7; in assay [19], 43.6 and 23.1 and 53.9. The “Siglec-Fc binding (Figure 3d)” value in assay [26] is 73.2 and 10.3 and 39.8; in [27], 74.5 and -10.3 and 64.2; in [28], 15.4 and -50.1 and 11.6. The “Binding, Neutrophils” value in [20] is 20.7 and 30.4 and 24.9.
